According to paper PMC8924211 (Nature Communications, 2022):
Numbering of substitutions follows the chain as printed.

Tests used:
Assay in all cases: AlphaScreen or HTRF; saturation binding: HEK293 cells transfected with SNAP-tagged receptor (WT or mutant) and labelled with SNAP-Lumi4-Tb, incubated with increasing concentrations of galanin-A2 in the presence or absence of 100 uM unlabeled galanin, 1 h at room temperature; HTRF ratio 665 nm/620 nm
Conditions in all cases: one partner purified
SNAP-GAL2R A170^ECL2S = target: T1, SNAP-GAL2R A170^ECL2S (human, UniProt O43603 1-387, A170^ECL2S, Lumi4-Tb on the SNAP tag)
T1 construct: also called A170S; source: HEK293, transfected, on cells; not shown: SNAP tag, N-terminal, kept
T1 sequence (looked up): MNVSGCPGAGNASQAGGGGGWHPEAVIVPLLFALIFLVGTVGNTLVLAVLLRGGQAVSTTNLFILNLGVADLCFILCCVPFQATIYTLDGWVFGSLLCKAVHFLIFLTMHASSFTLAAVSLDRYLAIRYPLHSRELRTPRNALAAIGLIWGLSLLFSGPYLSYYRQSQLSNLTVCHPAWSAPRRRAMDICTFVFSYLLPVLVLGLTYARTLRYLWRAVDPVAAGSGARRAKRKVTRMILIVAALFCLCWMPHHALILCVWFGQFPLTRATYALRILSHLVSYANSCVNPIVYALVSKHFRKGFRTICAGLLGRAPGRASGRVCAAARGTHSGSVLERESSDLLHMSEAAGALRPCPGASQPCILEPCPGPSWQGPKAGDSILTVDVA

SNAP-GAL2R L255^6.54A = target: T2, SNAP-GAL2R L255^6.54A (human, UniProt O43603 1-387, L255^6.54A, Lumi4-Tb on the SNAP tag)
T2 construct: also called L255A; source: HEK293, transfected, on cells; not shown: SNAP tag, N-terminal, kept
T2 sequence (looked up): T1 sequence (looked up) with S170A, L255A

SNAP-GAL2R V259^6.58A = target: T3, SNAP-GAL2R V259^6.58A (human, UniProt O43603 1-387, V259^6.58A, Lumi4-Tb on the SNAP tag)
T3 construct: also called V259A; source: HEK293, transfected, on cells; not shown: SNAP tag, N-terminal, kept
T3 sequence (looked up): T1 sequence (looked up) with S170A, V259A

SNAP-GAL2R T267^7.28A = target: T4, SNAP-GAL2R T267^7.28A (human, UniProt O43603 1-387, T267^7.28A, Lumi4-Tb on the SNAP tag)
T4 construct: also called T267A; source: HEK293, transfected, on cells; not shown: SNAP tag, N-terminal, kept
T4 sequence (looked up): T1 sequence (looked up) with S170A, T267A

B1: galanin-A2 (full-length galanin labeled with the dye A2 on an additional cysteine at the C-terminal end) (peptide)
peptide: GWTLNSAGYLLGPHAVGNHRSFSDKNGLTSC
modifications: dye A2 on the additional C-terminal cysteine
notes: numbers count on: the mature protein; additional cysteine at the C-terminal end of the peptide, carries the dye A2; source: synthetic peptide (synthesized by Vazyme, China)
B1 was tested, and the Kd (SNAP-GAL2R A170^ECL2S) was 33.5 nM, the Kd (SNAP-GAL2R L255^6.54A) was 55.1 nM and the Kd (SNAP-GAL2R V259^6.58A) was 180 nM. It also gave a Kd (SNAP-GAL2R T267^7.28A) of 229 nM.
